Assay results reported in PMC3234718.

Experiments:
Test in all cases: SPR
[1] = target: C-propeptide trimer of human procollagen III (CPIII) (human) (UniProt P02461)
CPIII-His (human) = CPIII-His (human) (UniProt P02461)
[2] = target: mini-procollagen III N306Q (human)

Molecule | KD(1) (heterogeneous ligand model, site 1) [1] | KD(2) (heterogeneous ligand model, site 2) [1] | KD(1) (heterogeneous ligand model, site 1) (CPIII-His (human)) | KD(2) (heterogeneous ligand model, site 2) (CPIII-His (human)) | KD(1) (heterogeneous ligand model, site 1) [2] | KD(2) (heterogeneous ligand model, site 2) [2]
CUB1-CUB2 (minimal active fragment of PCPE-1) (domain or fragment) | 4.6 nM | 28 nM | 12.8 nM | 27 nM | 0.74 nM | 12.6 nM
procollagen C-proteinase enhancer-1 (PCPE-1) (natural protein) QTPNYTRPVFLCGGDVKGESGYVASEGFPNLYPPNKECIWTITVPEGQTVSLSFRVFDLELHPACRYDALEVFAGSGTSGQRLGRFCGTFRPAPLVAPGNQVTLRMTTDEGTGGRGFLLWYSGRATSGTEHQFCGGRLEKAQGTLTTPNWPESDYPPGISCSWHIIAPPDQVIALTFEKFDLEPDTYCRYDSVSVFNGAVSDDSRRLGKFCGDAVPGSISSEGNELLVQFVSDLSVTADGFSASYKTLPRGTAKEGQGPGPKRGTEPKVKLPPKSQPPEKTEESPSAPDAPTCPKQCRRTGTLQSNFCASSLVVTATVKSMVREPGEGLAVTVSLIGAYKTGGLDLPSPPTGASLKFYVPCKQCPPMKKGVSYLLMGQVEENRGPVLPPESFVVLHRPNQDQILTNLSKRKCPSQPVRAAASQD | 4.7 nM | 17 nM | 5.9 nM | 15 nM | 0.66 nM | 10 nM
